Data as given in patent publication US20040053310, “Exhaustive selection of RNA aptamers against complex targets” (published 2004).

Target: T1, heat shock factor (HSF) (UniProt P22813 P22813:1-691)
T1 sequence: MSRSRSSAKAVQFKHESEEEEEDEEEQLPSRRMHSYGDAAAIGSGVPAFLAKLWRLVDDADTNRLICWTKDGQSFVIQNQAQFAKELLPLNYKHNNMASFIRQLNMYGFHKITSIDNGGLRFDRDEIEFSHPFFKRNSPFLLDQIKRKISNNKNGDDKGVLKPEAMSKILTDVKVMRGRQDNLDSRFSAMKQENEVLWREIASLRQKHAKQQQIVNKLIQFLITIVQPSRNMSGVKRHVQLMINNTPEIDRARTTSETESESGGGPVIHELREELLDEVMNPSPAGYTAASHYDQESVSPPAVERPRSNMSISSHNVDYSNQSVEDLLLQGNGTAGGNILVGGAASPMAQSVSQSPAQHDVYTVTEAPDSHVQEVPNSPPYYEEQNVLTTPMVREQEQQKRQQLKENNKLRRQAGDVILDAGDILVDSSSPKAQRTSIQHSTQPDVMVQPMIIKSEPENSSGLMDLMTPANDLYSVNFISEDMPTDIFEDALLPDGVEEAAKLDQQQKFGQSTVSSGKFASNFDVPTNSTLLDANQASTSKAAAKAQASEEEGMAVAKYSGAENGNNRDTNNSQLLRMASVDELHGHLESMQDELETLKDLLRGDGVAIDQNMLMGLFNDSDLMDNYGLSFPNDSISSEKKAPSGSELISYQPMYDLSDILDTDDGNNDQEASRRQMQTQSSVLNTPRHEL
Assay: EMSA; estimated from EMSA data; construct not given
Conditions: tags: fusion construct from E. coli (GST, His or MBP; exact one not specified for this assay); chain copies: 3

B1: RA1-HSF (14-1) (ssRNA)
RNA: GGGAGAAUUCAACUGCCAUCUAGGCAUCGCGAUACAAAAUUAAGUUGAACGCGAGUUCUCCAUCUAGUACUACAAGCUUCUGGACUCGAU
  Kd: 20 nM
